Laboratory results from US20200277373A1, “ANTI-TREM2 ANTIBODIES AND METHODS OF USE THEREOF” (Denali Therapeutics Inc., priority 2017, published 2020).

T1: TREM2 (Homo sapiens, UniProt Q9NZC2)
T1 construct: macrophage cells that endogenously express TREM2; endogenous in cells; host or cells: primary human monocyte-derived macrophages from donor blood
T1 sequence (Q9NZC2 19-230): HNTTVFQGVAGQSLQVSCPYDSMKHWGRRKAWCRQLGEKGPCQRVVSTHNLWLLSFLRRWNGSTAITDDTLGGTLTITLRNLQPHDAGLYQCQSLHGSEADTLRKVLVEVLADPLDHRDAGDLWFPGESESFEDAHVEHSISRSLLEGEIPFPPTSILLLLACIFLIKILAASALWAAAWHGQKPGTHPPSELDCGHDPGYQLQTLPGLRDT


Key:
TREM2 [1] = target: T1, TREM2; test: TREM2 PAM/pSyk assay on human macrophages; type: cell-based; settings: for effect on lipid ligand activation of TREM2 (in words): FIG. 9B, human macrophages; for Slope + Liposome: pSyk, 10 nM antibody with 0, EC20, EC50, EC80 PS/PC liposomes, liposome-alone signal subtracted
Description: Human macrophages were differentiated from donor blood using a human monocyte enrichment cocktail (Stem Cell Technologies) and culturing monocytes with human mCSF for five days in macrophage media (RPMI+10% Hyclone FBS+Glutamax+Pen/Strep+non-essential amino acids+sodium pyruvate). On the fifth day, the human macrophages were scraped from the flasks and were re-plated at 100,000 cells/well on a 96-well poly-D-lysine-coated plate in the macrophage media (without mCSF). The cells were incubated for 24 hours to adhere, then the media was removed.
Antibodies pre-mixed with lipid vesicles comprised of 70% DOPC and 30% POPS (made according to the procedure for making vesicles described above) diluted in HBSS were immediately added to the cells, and allowed to incubate for 5 minutes at 37° C. The liposome/antibody solution was removed, and 35 μL lysis buffer (Cell Signaling Technologies, CST) was added using the liquid handler. The lysate was then incubated at 4° C. for 30 minutes, then either frozen at −80° C. or immediately carried forward to a pSyk AlphaLISA assay as described above. […] The results of the assay are shown in FIG. 9B and in Table 8 below.

TREM2 [2] = target: T2, TREM2 (Homo sapiens, UniProt Q9NZC2); test: FACS binning on human TREM2-HEK cells (competition with R&D antibody); type: binding; settings: epitope bin, 100 nM antibody
T2 construct: expressed in transfected cells
Description: HEK293 overexpressing human TREM2 (H6) were harvested by 0.05% trypsin and incubated at 37° C. incubator for 2 hours for surface TREM2 recovery. After incubation, cells were washed with 1×PBS and FACS buffer (PBS+0.5% BSA) with human Trustain FcX solution (Biolegend, Cat #422302) was added at a density of 10^6/mL. Cells were seeded at 100,000 cells per well in a 96-well round-bottom and incubated 20 minutes at room temperature. After incubation, anti-TREM2 antibodies (100 nM) were added to the cells and the cells were incubated for 45 minutes on ice. After incubation, rat anti-h/mTREM2-APC antibody (1:100, R&D, Cat # FAB17291A) was added to the cells, and the cells were incubated for 30 minutes on ice. After incubation, cells were washed with FACS buffer three times and resuspended in 10 μL FACS buffer, then analyzed by flow cytometry (BD FACSCanto II, San Jose, Calif.). 20,000 events were obtained for each sample. The ability to compete with R&D antibody was determined by MFI analysis compared to isotype or buffer control wells.
T2 sequence (O43914 22-113 partner, one chain of several): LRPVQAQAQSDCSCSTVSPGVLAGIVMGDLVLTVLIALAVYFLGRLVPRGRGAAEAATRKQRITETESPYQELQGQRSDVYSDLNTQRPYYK

TREM2 [3] = target: T2, TREM2; test: PAM and single point pSyk screen, HEK293 TREM2/DAP12 cells, antibody with or without PS/PC liposomes; type: cell-based
Description: Two days in advance of the experiment, HEK293 cells stably overexpressing TREM2 and DAP12 were plated at 40,000 cells/well on a 96 well poly-D-lysine-coated plate. In PAM experiments utilizing lipid vesicles, the lipid vesicles (see protocol below) were then mixed with the antibodies (at a constant concentration) on a 96-well plate using a Hamilton Nimbus liquid handler at a liposome concentration of 0, liposome EC20, EC50, or EC80 (see below) in PBS. In agonist experiments alone (no liposomes), antibodies were diluted without liposomes in PBS. The cells were washed 3× with HBSS with a Biotek 405/406 plate washer, then 50 μL of the liposome/antibody mixture was added per well using a Hamilton Nimbus liquid handler. The cell plate containing the liposome/antibodies was then transferred to a 37° C. incubator for 5 minutes. The liposome/antibody solution was removed by flicking the plate, and 40 μL lysis buffer (Cell Signaling Technologies, CST) was added using the liquid handler. […]
The liposomes were diluted in HBSS, and 50 μL of liposome solution was added per well to TREM2/DAP12-overexpressing cells using the Hamilton Nimbus liquid handler as in the above protocol. […] The pSyk response was measured as described above from 10 μL lysate, and the curve fit using a non-linear regression (4 parameter dose response) fit in Prism.

Row | Molecule | effect on lipid ligand activation of TREM2 (in words) (TREM2 [1]) | Slope + Liposome (TREM2 [1]) | Bin by FACS (TREM2 [2]) | p-Syk induction by antibody alone (in words) (TREM2 [3]; no liposomes, HEK293 TREM2/DAP12) | interaction with lipid ligand to activate p-Syk (in words) (TREM2 [3]; FIG. 9A, 30 nM antibody, PS/PC liposomes, HEK cells)
1 | RS9.F6: anti-TREM2 antibody clone; VH SEQ ID NO:24, VL SEQ ID NO:35 (antibody, V domains shown) VH: QVQLQQPGAELVKPGASVKLSCKASGYTFTSYWMHWVKQSPGRGLEWIGRSDPTTGGTNYNEKFKTKATLTVDKPSSTAYMQLSSLTSDDSAVYYCVRTSGTGDYWGQGTSLTVSS VL: DVVMTQTPLSLPVSLGDQASISCRSSQSLVHNNGNTFLHWYLQKPGQSPKLLIYKVSNRFSGVPDRFSGSGSGTDFTLKISRVEAEDLGVYFCSQTTHVPPTFGGGTKLEIK | at least an additive effect | 878 |  |  | 
2 | 21D11: anti-TREM2 antibody clone; VH SEQ ID NO:14, VL SEQ ID NO:25 (antibody, V domains shown) VH: QVQLQQSGAELARPGASVKLSCKASGYTFTSYWIQWVKQRPGQGLEWIGTIYPGDGDARYTQKFKGKATLTADKSSSTTYMQLNSLASEDSAVYYCARNGITTAGYYAMDYWGQGTSVTVSS VL: DIQMTQSPASLSVSVGETVTITCRASENIYSNLAWYQQKQGRSPQLLVYAATNLADGVPSRFSGSGSGTQYSLKINSLQSEDFGYYYCQHFWGTPYTFGGGTKVEIK |  |  | 1-2 | do not induce p-Syk | 
3 | 3D3.A1: anti-TREM2 antibody clone; VH SEQ ID NO:18, VL SEQ ID NO:29 (antibody, V domains shown) VH: EVQLQQSGPELVKPGASVKISCKTSGYTLSEYTMHWVIQSHGKSLEWIGGVIPNSGGTSYNQKFRDKASLTVDKSSSTAYLELRSLTSEDSAVYYCARGDDSYRRGYALDYWGQGTSVTVSS VL: DIVMSQSPSSLAVSVGEKVTMSCKSSQSLLYSSNQKSYLAWYQQKPGQSPKLLIYWASTRESGVPDRFRGSGSGTDFTLTISSVKAEDLAVYYCQQYFSYPPTFGGGTKLEIK | at least an additive effect | 94 | 3 |  | additive with lipid TREM2 activators
